Values of other authors as cited in article PMC8100127.

Assays:
[1] = molecular target: CA 15-3 (MUC1) (UniProt P15941); settings: No purified-protein binding assay in this paper (Kd values cited). TAS on plasma EVs: 0.1 uM Cy5-aptamer, 1x PBS, 2 mM MgCl2, 25 C, 2 h
[2] = molecular target: T1, VEGF K321N;internal_change (UniProt P15692); settings: No purified-protein binding assay in this paper (Kd values cited). TAS on plasma EVs: 0.1 uM Cy5-aptamer, 1x PBS, 2 mM MgCl2, 25 C, 2 h
T1 sequence: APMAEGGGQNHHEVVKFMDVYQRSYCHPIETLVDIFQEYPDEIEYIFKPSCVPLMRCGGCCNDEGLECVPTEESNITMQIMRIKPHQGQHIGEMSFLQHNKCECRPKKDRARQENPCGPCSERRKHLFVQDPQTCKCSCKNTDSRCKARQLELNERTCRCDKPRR

CA 15-3 (MUC1), sequence (P15941 24-1097): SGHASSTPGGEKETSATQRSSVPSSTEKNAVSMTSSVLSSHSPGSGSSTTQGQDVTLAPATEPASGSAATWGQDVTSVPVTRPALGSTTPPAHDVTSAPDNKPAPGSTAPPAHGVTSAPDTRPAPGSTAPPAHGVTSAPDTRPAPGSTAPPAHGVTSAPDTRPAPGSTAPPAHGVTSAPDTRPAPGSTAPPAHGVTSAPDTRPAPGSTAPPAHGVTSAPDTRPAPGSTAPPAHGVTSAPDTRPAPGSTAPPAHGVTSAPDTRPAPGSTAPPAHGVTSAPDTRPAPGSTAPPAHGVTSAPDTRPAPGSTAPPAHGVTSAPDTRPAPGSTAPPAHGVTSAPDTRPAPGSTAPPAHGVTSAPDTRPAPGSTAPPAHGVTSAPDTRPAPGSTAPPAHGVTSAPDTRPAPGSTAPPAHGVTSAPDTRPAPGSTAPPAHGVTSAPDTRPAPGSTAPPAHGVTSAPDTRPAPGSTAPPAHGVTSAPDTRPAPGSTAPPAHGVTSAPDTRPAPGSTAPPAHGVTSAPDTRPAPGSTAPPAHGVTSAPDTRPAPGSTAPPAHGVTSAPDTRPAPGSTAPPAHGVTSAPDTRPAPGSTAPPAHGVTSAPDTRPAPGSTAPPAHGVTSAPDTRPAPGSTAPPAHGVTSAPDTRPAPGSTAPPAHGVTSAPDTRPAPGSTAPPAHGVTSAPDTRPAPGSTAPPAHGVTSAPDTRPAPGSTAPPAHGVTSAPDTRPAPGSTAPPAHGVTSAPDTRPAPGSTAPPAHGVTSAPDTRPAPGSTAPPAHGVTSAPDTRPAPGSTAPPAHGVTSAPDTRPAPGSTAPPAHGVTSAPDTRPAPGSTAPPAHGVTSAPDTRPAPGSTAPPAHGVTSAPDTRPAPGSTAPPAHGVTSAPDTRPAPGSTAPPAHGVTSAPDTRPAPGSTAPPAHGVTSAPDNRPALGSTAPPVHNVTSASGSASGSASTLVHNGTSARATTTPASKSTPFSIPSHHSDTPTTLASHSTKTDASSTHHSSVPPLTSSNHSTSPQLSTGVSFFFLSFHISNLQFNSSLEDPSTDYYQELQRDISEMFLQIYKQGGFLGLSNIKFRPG

Sequence: GCAGTTGATCCTTTGGATACCCTGG [CA 15-3 aptamer]
- Kd [1]: 0.000135 µM

Sequence: TTCCCGTCTTCCAGACAAGAGTGCAGGG [VEGF aptamer]
- Kd [2]: 0.4 µM
